Results: publication PMC5402979, “Tissue-specific enhancer repression through molecular integration of cell signaling inputs”
Positions count from the first letter of the chain named.

How the values were obtained:
GST-C15HD [1] = target: T1, GST-C15HD (Drosophila melanogaster, UniProt Q4V729 192-292); experiment: EMSA; EMSA, 6% native polyacrylamide, 32P probes; buffers as in cited refs 22 (Bowl) and 26 (HD), not stated here; settings: protein: recombinant; tags: GST (N-term, pGex4T); label: 32P (Klenow dCTP)
GST-C15HD [2] = target: T1, GST-C15HD; experiment: EMSA; up to three complexes; EMSA, 6% native polyacrylamide, 32P probes; buffers as in cited refs 22 (Bowl) and 26 (HD), not stated here; settings: protein: recombinant; tags: GST (N-term, pGex4T); label: 32P (Klenow dCTP)
GST-C15HD [3] = target: T1, GST-C15HD; experiment: EMSA; equivalent to CR1; EMSA, 6% native polyacrylamide, 32P probes; buffers as in cited refs 22 (Bowl) and 26 (HD), not stated here; settings: protein: recombinant; tags: GST (N-term, pGex4T); label: 32P (Klenow dCTP)
GST-BowlZF = GST-BowlZF (UniProt Q9VQU9 220-382); experiment: EMSA; EMSA, 6% native polyacrylamide, 32P probes; buffers as in cited refs 22 (Bowl) and 26 (HD), not stated here; settings: protein: recombinant, tags: GST (N-term, pGex4T)
GST-DllHD = GST-DllHD (UniProt P20009 120-188); experiment: EMSA; strictly monomeric; abolished by increasing GST-C15HD; EMSA, 6% native polyacrylamide, 32P probes; buffers as in cited refs 22 (Bowl) and 26 (HD), not stated here; settings: protein: recombinant; tags: GST (N-term, pGex4T); label: 32P (Klenow dCTP)
GST-C15HD [4] = target: T1, GST-C15HD; experiment: EMSA; monomeric and some dimeric complexes; displaces DllHD dose-dependently; EMSA, 6% native polyacrylamide, 32P probes; buffers as in cited refs 22 (Bowl) and 26 (HD), not stated here; settings: protein: recombinant; tags: GST (N-term, pGex4T); label: 32P (Klenow dCTP)

T1 sequence (Q4V729 entry or part of it): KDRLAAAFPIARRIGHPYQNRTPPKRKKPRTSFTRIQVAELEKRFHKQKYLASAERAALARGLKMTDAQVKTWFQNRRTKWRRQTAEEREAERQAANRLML
GST-BowlZF, sequence (Q9VQU9 220-382): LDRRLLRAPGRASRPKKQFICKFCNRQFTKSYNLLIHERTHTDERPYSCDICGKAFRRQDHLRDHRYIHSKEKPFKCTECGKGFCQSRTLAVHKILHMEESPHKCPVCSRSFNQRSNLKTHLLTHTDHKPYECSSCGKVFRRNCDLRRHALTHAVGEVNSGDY
GST-DllHD, sequence (P20009 120-188): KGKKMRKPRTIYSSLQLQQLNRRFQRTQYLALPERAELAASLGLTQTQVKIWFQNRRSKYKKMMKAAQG

B1: CR1S3+4+6m (dsDNA)
DNA 1: TTAAGCTGCAAATCGCGGCGGGCGCCCCGATCACGCCGGGCGGTTCGGGATTAATGGTAATAAGCAGTT
DNA 2: AACTGCTTATTACCATTAATCCCGAACCGCCCGGCGTGATCGGGGCGCCCGCCGCGATTTGCAGCTTAA
- binding result (GST-C15HD [1]): no binding

B2: CR1 (dsDNA)
DNA 1: TTAAGCTGCAAATCGCGGCAATCGTTAAGATCACGAAAAACAATTCAAAATTAATGGTAATAAGCAGTT
DNA 2: AACTGCTTATTACCATTAATTTTGAATTGTTTTTCGTGATCTTAACGATTGCCGCGATTTGCAGCTTAA
- binding result (GST-C15HD [2]): binds

B3: CR1DBSm (dsDNA)
DNA 1: B2 DNA 1 with A50C, T51C, T52C, A53C, T58C, A59C, A60C, T61C
DNA 2: B2 DNA 2 with A9G, T10G, T11G, A12G, T17G, A18G, A19G, T20G
- binding result (GST-C15HD [3]): binds

B4: 1Lm (dsDNA)
DNA 1: TACAATTTAAGCCGTAAAGC
DNA 2: GCTTTACGGCTTAAATTGTA
- binding result (GST-BowlZF; label: 32P (Klenow dCTP)): no binding

B5: 1L+ (CR2 large) (dsDNA)
DNA 1: TACAACAGAAGCCGTCTGGC
DNA 2: GCCAGACGGCTTCTGTTGTA
- binding result (GST-BowlZF; label: 32P (Klenow dCTP)): binds

B6: DBS (Dll-binding sequence) (dsDNA)
DNA 1: TCAAAATTAATGGTAATAAGCA
DNA 2: TGCTTATTACCATTAATTTTGA
- binding result (GST-C15HD [1]): no binding

B7: OddZF BS (dsDNA)
DNA 1: GCATACAGTAGCACTGATAT
DNA 2: ATATCAGTGCTACTGTATGC
- binding result (GST-BowlZF; label: 32P 5' end (Klenow, one dCTP)): binds

B8: 1Sm (dsDNA)
DNA 1: TACAATTTAAGCCGTC
DNA 2: GACGGCTTAAATTGTA
- binding result (GST-BowlZF; label: 32P (Klenow dCTP)): no binding

B9: CR1 3' half (dsDNA)
DNA 1: CACGAAAAACAATTCAAAATTAATGGTAATAAGCAGTT
DNA 2: AACTGCTTATTACCATTAATTTTGAATTGTTTTTCGTG
- binding result (GST-DllHD): binds
- binding result (GST-C15HD [4]): binds

B10: 2Sm (dsDNA)
DNA 1: AAATTTTAGTCCCAG
DNA 2: CTGGGACTAAAATTT
- binding result (GST-BowlZF; label: 32P (Klenow dCTP)): no binding
